Results from article PMC12046560.

Target: Neorhodopsin (NeoR) rhodopsin module from Rhizoclosmatium globosum, residues 1-279 (Rhizoclosmatium globosum)
Assay: cryo-EM structure; single-particle cryo-EM of purified NeoR in LMNG/CHS, 50 mM Hepes pH 7.4, 100 mM NaCl, after two SEC steps (monodisperse, single oligomeric state); 4.80 Å map refined under C1; two AlphaFold2 monomers fitted into the map

stoichiometry N: 2
Substance: Neorhodopsin (NeoR) rhodopsin module from Rhizoclosmatium globosum, residues 1-279 (domain or fragment)
